Experimental data as given in article PMC8063937, “A Novel Cysteine Protease Inhibitor of Naegleria fowleri That Is Specifically Expressed during Encystation and at Mature Cysts” (Pathogens, 2021).

Assays:
[1] = target: recombinant cathepsin-B-like cysteine protease of N. fowleri (NfCBL) (Naegleria fowleri); assay: enzyme inhibition assay (residual activity on a fluorogenic substrate); 10 nM enzyme incubated with 0-100 nM NfCPI in 50 mM sodium acetate pH 6.0, 20 min, RT; substrate Z-LR-MCA in 50 mM sodium acetate pH 5.0 with 10 mM DTT; Ki calculated from IC50 and Km, non-linear regression
[2] = target: T1, recombinant cathepsin-B cysteine protease of N. fowleri (NfCB) (Naegleria fowleri); assay: as above; conditions: both partners purified
T1 chain: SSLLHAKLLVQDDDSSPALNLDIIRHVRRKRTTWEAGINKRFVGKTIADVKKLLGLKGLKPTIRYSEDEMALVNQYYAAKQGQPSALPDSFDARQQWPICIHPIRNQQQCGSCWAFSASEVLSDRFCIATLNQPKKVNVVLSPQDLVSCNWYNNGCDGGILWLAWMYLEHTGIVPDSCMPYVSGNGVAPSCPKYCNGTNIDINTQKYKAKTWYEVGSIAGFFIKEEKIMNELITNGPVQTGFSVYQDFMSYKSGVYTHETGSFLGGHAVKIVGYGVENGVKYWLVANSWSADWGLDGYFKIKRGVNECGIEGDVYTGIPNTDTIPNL

papain = target: T2, papain (UniProt P00784 134-345); assay: as above; conditions: both partners purified
T2 construct: Papain, cysteine protease bought from Sigma; source: bought: Sigma
T2 sequence (looked up): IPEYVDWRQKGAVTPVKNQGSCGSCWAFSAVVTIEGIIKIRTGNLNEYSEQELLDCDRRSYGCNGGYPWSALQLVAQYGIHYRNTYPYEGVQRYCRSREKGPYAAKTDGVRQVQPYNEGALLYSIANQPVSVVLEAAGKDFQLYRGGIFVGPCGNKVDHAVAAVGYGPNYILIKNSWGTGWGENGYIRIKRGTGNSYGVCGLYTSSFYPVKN

[3] = target: the molecule itself; assay: non-reducing PAGE; purified NfCPI, with 0-10% SDS, without β-mercaptoethanol, with or without heating at 100 °C for 5 min

Q: “recombinant cysteine protease inhibitor of Naegleria fowleri (NfCPI), lacking the signal peptide (from UniProt A0A6A5BTM4 30-136) (natural protein)” was tested. Which Ki [1] did it give?
A: Its Ki is 0.144 nM.

B1: recombinant cysteine protease inhibitor of Naegleria fowleri (NfCPI), lacking the signal peptide (natural protein)
chain: ALPIATNVIPGGRQPISNQTLIEELTTFIPKASSNGVCRVTRVLSAQQQVVAGTIYYLVVEVSTSCDATSSQTFCEKLKIFRPLVTRSVENPQLQLQKEQRVDCNTP
notes: ORF of 136 residues; the forward primer encodes LPIATNV as its first residues, the reverse primer ends at the stop codon; cDNA from strain Carter NF69 (ATCC 30215); also called recombinant NfCPI; source: E. coli M15 (pREP14), pQE-9, purified (Ni-NTA)
Q: For B1, which Ki [2] is on record?
A: The Ki was 0.193 nM.

Q: What about the Ki (papain) of the same molecule?
A: The Ki was 0.259 nM.

Q: What about the “stoichiometry N” value [3] of the same molecule?
A: The value was 2.
